Consider 4 molecules from article PMC3593212, “Sequence-Specific, RNA–Protein Interactions Overcome Electrostatic Barriers Preventing Assembly of Satellite Tobacco Necrosis Virus Coat Protein” (Journal of Molecular Biology, 2013).

The target of series [1] is T1, STNV-1 coat protein (CP) (Satellite tobacco necrosis virus 1 …, UniProt P03606 1-196).
T1 sequence: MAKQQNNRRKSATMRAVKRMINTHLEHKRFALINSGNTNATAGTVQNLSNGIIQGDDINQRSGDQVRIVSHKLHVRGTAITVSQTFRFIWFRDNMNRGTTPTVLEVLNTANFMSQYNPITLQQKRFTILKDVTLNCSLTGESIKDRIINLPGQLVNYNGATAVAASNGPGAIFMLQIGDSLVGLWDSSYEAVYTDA
Put plainly: analytical ultracentrifugation (capsid reassembly); assembly more efficient than B3; Reassembly buffer, salt, pH and temperature not in the material (capsid assembly depends on calcium and pH); short RNAs at molar ratios incl. 1:1 and 2.5:1; CP. As to conditions: protein: recombinant; hairpin, 4-nt loop ACAA.

In series [2] the target is T1, STNV-1 coat protein (CP). Put plainly: analytical ultracentrifugation (capsid reassembly), TEM; VLPs form even at lowest molar ratio; 28 S and ~42 S species at 1:1; Reassembly buffer, salt, pH and temperature not in the material (capsid assembly depends on calcium and pH); short RNAs at molar ratios incl. 1:1 and 2.5:1; CP. As to conditions: protein: recombinant; hairpin, 4-nt loop ACAA.

The target of series [3] is T1, STNV-1 coat protein (CP). Put plainly: analytical ultracentrifugation (capsid reassembly); heterologous RNA; triggers capsid assembly; Reassembly buffer, salt, pH and temperature not in the material (capsid assembly depends on calcium and pH); short RNAs at molar ratios incl. 1:1 and 2.5:1; CP. The note with it: protein: recombinant; hairpin, loop AUUA.
Series [4] deals with the molecule itself. Put plainly: crystal structure; VLP reassembled from purified CP with B3 RNA aptamer (5:1 w/w CP:RNA) in 50 mM Hepes, 3 mM CaCl2, pH 7.5, purified by SEC; crystals in 50 mM phosphate pH 6.2-6.8, 0.2-0.8% PEG 6000, 0-1 mM MgCl2, 25 °C; strict 60-fold NCS. A general note: SEC sorts molecules by how far they enter the pores of the column.

B1: B3 short (structured_RNA)
RNA: CGUGCAACAAUGCACG
Turning to B1, the binding result with STNV-1 coat protein (CP) [1] is reported as “binds”.

B2: B3 aptamer (structured_RNA)
RNA: CCUUUUCAAGACAUGCAACAAUGCACACAG
As to B2, in the series with STNV-1 coat protein (CP) [2], the binding result is recorded as “binds”.

B3: MS2 TR (structured_RNA)
RNA: ACAUGAGGAUUACCCAUGU
Consider B3, for which the binding result in the series with STNV-1 coat protein (CP) [3] is recorded as “binds”.

B4: satellite tobacco necrosis virus (STNV-1) coat protein (natural protein)
chain: T1 sequence
notes: coat protein of satellite tobacco necrosis virus strain 1 (STNV-1), recombinant version expressed from a synthetic gene; In the T = 1 capsid the chain stands 60 times; all assembly here was done with RNA present; also called STNV CP; CP; source: E. coli (synthetic gene); recombinant VLPs purified, disassembled in 50 mM Hepes, 10 mM EDTA, pH 8.5; CP separated from the mRNA by Q-Sepharose FF and SP …
The stoichiometry N is the number of molecules, sites or subunits per partner or assembly. Consider B4, for which the “stoichiometry N” value in series [4] came out at 60.
